This test has as its target ItcR itaconate-binding domain (IBD) (ItcR truncation of residues 80-292). The test is described as follows: SEC-MALS.

The values that follow come from article PMC9636186 (Nature Communications, 2022).

With “ItcR itaconate-binding domain (IBD) (ItcR truncation of residues 80-292) (domain or fragment)”, the stoichiometry N (as a rule, a count of units in the complex or per binding partner) was determined as 2.
